This is an account of results in US20100136663.

This data set addresses T1, ZFP-CRP Del 180 (CRP 1-180 fused to human zinc fingers ZFP1/ZFP2) (Escherichia coli / Homo sapiens) (UniProt P0ACJ8).
T1 sequence: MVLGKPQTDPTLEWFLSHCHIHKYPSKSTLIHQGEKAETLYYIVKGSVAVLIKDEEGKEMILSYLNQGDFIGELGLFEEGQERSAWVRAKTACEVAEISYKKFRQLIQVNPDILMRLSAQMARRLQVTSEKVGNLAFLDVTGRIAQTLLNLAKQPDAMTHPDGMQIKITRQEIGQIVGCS
The data set can be described thus: cell_activity.

The sequence “ATCGATAAGCTTACTCCCCATCCCCCTGTTGACAATTAATCATCGGCTCGTATAATGTGTGGAATTGTGAGCGGATAACAATTTCGCGGCGGGGGCGGCGGGGACACAGGAAACAGGATCAAATTATGCCTGTCGAC (double strand)” returned an activity (fold repression) (E. coli EGFP reporter with 1 mM IPTG, assignment of SEQ 8 to pEGFP-R inferred) of 1.5.

For the sequence “ATCGATAAGCTTGCGGCGGGGGCGGCGGGGACTCCCCATCCCCCTGTTGACAATTAATCATCGGCTCGTATAATGTGTGGAATTGTGAGCGGATAACAATTTCACACAGGAAACAGGATCAAATTATGCCTGTCGAC (double strand)”, under “E. coli EGFP reporter without IPTG, 2-fold with 1 mM IPTG, assignment of SEQ 7 to pEGFP-A inferred”, the activity (fold activation) was 3.
